From PMC4999498

B1: lymphocyte-specific protein-1 (Lsp1, mLsp1): S209A (protein)
parent chain: MAEAAIDPRCEEQEELHAEDSEGLTTQWREEDEEEAAREQRQRERERQLQDQDKDKEDDGGHSLEQPGQQTLISLKSSELDEDEGFGDWSQKPEPRQQFWGNEGTAEGTEPSQSERPEEKQTEESSHQAKVHLEESNLSYREPDPEDAVGGSGEAEEHLIRHQVRTPSPLALEDTVELSSPPLSPTTKLADRTESLNRSIKKSNSVKKSQPTLPISTIDERLQQYTQATESSGRTPKLSRQPSIELPSMAVASTKTLWETGEVQSQSASKTPSCQDIVAGDMSKKSLWEQKGGSKISSTIKSTPSGKRYKFVATGHGKYEKVLVDEGSAP
B2: lymphocyte-specific protein-1 (Lsp1, mLsp1): thiamet-G (TG) (protein)
parent chain: B1 parent chain

Tests used:
[1] = phospho-S243 immunoblot, anti-IgM-stimulated Ramos; conditions: glycan lost; control: WT Lsp1
[2] = phospho-S243 immunoblot, anti-IgM-stimulated splenic B cells; conditions: glycan gained; control: no TG

Protein	other: phosphorylation at S243 [1]	other: phosphorylation at S243 [2]
B1	decreases	–
B2	–	increases
